The text below walks through data of paper PMC10011430.

By Kd is commonly meant a measure of binding affinity in units of concentration. The low end stands for higher affinity, the high end for lower affinity.

In the assay the target is DENV NS2B3 protease, active site mutant NS2B3^S135A (coexpressed NS2B hydrophilic core and NS3 prote (Dengue virus (serotype not given))). Kind of assay: native gel or EMSA. In general terms: A gel shift assay detects complexes by their altered migration in electrophoresis.

Consider “cGAS cleavage product C-terminal (CP-C, 125-522) (from UniProt Q8N884 125-522) (domain or fragment)”, for which the equilibrium dissociation constant (Kd) amounted to 39.2 µM. Regarding “full-length human cyclic GMP-AMP synthase (cGAS) (from UniProt Q8N884 1-522) (natural protein)”, the equilibrium dissociation constant (Kd) amounted to 21.6 µM.
